Columns and labels:
[1] = target: T1, EZH2 H689A mutant (catalytically inactive mutant, MT) (UniProt Q15910 1-746); assay: binding of EZH2 WT or MT with RORα in cell extracts (FIG. 15)
T1 construct: also called EZH2 MT; H689A mutant (MT) of EZH2

[2] = target: T2, DDB1-CUL4-associated factor 1 adaptor (DCAF1) (UniProt Q9Y4B6 1-1507); assay: co-immunoprecipitation, HEK-293 cells with 20 µM MG132 (FIG. 23 legend)
T2 construct: Endogenous or overexpressed in HEK-293 cells, in cell extracts; also called VprBP
T2 sequence (Q9Y4B6 whole entry): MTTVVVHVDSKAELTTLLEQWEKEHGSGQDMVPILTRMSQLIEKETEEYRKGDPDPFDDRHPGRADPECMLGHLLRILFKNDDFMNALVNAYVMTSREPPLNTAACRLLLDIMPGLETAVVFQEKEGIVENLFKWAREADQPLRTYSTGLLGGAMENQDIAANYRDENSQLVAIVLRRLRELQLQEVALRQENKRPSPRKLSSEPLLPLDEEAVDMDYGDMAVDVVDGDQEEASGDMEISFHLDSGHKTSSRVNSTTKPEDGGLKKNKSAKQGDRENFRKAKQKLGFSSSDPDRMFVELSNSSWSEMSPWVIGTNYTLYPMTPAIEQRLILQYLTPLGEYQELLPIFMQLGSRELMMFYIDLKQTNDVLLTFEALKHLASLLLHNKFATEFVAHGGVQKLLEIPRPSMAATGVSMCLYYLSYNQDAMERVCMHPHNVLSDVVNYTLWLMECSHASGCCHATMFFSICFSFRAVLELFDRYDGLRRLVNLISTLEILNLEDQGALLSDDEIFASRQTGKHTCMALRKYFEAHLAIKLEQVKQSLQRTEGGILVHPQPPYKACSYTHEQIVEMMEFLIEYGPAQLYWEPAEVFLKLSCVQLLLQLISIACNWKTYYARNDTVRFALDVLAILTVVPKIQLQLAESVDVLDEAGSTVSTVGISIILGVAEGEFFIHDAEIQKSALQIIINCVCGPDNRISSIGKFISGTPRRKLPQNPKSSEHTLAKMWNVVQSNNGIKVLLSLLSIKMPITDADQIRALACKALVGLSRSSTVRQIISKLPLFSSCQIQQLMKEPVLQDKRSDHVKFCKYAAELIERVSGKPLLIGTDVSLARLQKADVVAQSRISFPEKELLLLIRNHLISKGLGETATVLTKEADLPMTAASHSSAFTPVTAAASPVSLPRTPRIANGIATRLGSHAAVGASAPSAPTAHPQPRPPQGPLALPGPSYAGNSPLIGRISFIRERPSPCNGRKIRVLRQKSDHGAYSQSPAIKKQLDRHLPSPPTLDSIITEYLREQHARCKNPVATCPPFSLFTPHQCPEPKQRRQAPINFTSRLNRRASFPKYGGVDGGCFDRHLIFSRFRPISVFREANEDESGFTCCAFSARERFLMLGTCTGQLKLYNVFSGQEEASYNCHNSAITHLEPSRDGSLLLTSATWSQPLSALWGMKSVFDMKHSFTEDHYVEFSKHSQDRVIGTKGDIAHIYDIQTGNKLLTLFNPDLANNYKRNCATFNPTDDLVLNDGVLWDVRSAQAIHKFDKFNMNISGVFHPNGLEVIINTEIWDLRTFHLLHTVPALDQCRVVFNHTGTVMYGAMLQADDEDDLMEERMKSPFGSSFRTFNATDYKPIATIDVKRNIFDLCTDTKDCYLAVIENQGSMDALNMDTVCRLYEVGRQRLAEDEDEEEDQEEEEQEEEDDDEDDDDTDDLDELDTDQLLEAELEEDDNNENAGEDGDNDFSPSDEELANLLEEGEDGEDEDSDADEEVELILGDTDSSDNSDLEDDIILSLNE

[3] = target: T3, Enhancer of Zeste Homolog 2 lysine methyltransferase (EZH2) wild type (UniProt Q15910 1-746); assay: co-immunoprecipitation of endogenous proteins, HEK-293 cells with MG132 (FIG. 3)
T3 construct: Endogenous (HEK-293) or overexpressed, in cell extracts; also called EZH2 WT
T3 sequence (Q15910 whole entry): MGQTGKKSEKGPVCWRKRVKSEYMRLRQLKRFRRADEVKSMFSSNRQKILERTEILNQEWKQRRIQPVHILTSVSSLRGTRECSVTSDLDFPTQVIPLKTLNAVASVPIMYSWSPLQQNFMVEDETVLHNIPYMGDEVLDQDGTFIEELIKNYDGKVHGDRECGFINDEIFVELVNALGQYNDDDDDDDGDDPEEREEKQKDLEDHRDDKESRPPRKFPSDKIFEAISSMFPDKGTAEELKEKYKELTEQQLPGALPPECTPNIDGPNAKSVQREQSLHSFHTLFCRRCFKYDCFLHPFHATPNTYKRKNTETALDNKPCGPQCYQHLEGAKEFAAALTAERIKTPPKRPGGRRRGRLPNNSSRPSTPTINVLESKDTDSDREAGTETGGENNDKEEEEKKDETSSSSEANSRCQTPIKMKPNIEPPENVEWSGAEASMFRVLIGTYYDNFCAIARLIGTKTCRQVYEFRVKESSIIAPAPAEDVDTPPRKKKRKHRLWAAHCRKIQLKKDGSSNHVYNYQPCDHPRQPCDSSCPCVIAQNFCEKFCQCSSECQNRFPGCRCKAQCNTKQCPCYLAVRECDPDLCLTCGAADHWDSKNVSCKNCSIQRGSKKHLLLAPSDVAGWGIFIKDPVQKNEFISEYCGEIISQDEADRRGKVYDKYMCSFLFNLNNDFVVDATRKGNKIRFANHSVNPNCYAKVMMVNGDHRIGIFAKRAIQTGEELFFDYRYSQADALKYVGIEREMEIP

Measured: binding result

T1 sequence (Q15910 whole entry H689A): as the sequence (Q15910 whole entry) above, with H689A counted along it

B1: retinoic acid-related orphan nuclear receptor α (RORα) wild type (receptor, UniProt P35398-2 1-523, looked up)
chain: MESAPAAPDPAASEPGSSGADAAAGSRETPLNQESARKSEPPAPVRRQSYSSTSRGISVTKKTHTSQIEIIPCKICGDKSSGIHYGVITCEGCKGFFRRSQQSNATYSCPRQKNCLIDRTSRNRCQHCRLQKCLAVGMSRDAVKFGRMSKKQRDSLYAEVQKHRMQQQQRDHQQQPGEAEPLTPTYNISANGLTELHDDLSNYIDGHTPEGSKADSAVSSFYLDIQPSPDQSGLDINGIKPEPICDYTPASGFFPYCSFTNGETSPTVSMAELEHLAQNISKSHLETCQYLREELQQITWQTFLQEEIENYQNKQREVMWQLCAIKITEAIQYVVEFAKRIDGFMELCQNDQIVLLKAGSLEVVFIRMCRAFDSQNNTVYFDGKYASPDVFKSLGCEDFISFVFEFGKSLCSMHLTEDEIALFSAFVLMSADRSWLQEKVKIEKLQQKIQLALQHVLQKNHREDGILTKLICKVSTLRALCGRHTEKLMAFKAIYPDIVRLHFPPLYKELFTSEFEPAMQIDG
modifications: K38 mono-methylated by EZH2 in cells (the fraction methylated is not stated)
notes: Endogenous protein of HEK-293 cells in some co-immunoprecipitations, 3x-Flag-tagged (3x-Flag-CMV-RORα) in others; the tag is not written as a piece; also called RORα WT; Flag-RORα
binds: [1] | [2] | [3]
